Test [1] concerns the target T1, EGFR-pY1068 (SEQ ID NO: 7) (Homo sapiens, UniProt P00533).
T1 construct: phosphotyrosine at Tyr1068 (chemical modification); purchased New England Peptide, Fitchburg Mass; host or cells: chemical synthesis
The test is described as follows: Single-well 4-spot assay for multiple peptide-protein interactions. The class given is binding. The settings on record: 4-spot plate. An excerpt:
(§1) Four phosphopeptides and their cognate binding proteins (Table 14) were selected for an integrated assay of multiple peptide-protein interaction in 4-spot Multi-Array plates. The IkBa-24pp peptide and its binding protein, βTRCP, are described in Example 10. […] These phosphotyrosine containing peptides are recognized by different adaptor or effecter proteins of the receptor tyrosine kinase signaling pathway.
(§2) These four peptides were coupled to BSA carrier protein through cystine residue. After purification on PD-10 gel filtration columns, the peptide-BSA conjugates were then deposited on the assay domains of a 4-spot multi-array IPR plate (i.e., in one of the four exposed regions of working electrode defined by the dielectric layer) with an automated micro-dispensing system (Bio-Dot Dispenser, Bio-Dot, Irvine Calif.). […] These plates are dried then used or stored under desiccated conditions. A few hours prior to usage the plates were rehydrated and blocked with 3% BSA in PBS. […] The in vitro translated and biotin-labeled proteins were then assayed in the 4-spot multi-array IPR plates under conditions described in Example 10.

In test [2] the target is T2, EGFR-pY1148 (SEQ ID NO: 9) (Homo sapiens, UniProt P00533).
T2 construct: phosphotyrosine at Tyr1148 (chemical modification); purchased New England Peptide, Fitchburg Mass; host or cells: chemical synthesis
The description is as above. The test is classed as binding. Particulars: 4-spot plate.
From the text: as §1, §2

The target of test [3] is T3, Epha7 (Mus musculus, UniProt Q61772).
T3 construct: autophosphorylation activity from full-length clones Spleen Tyrosine Kinase (SYK) and Eph receptor-A7 (EphA7); host or cells: rabbit reticulocyte lysate, TnT coupled in vitro transcription/translation (cell-free)
The test is described as follows: Kinase inhibitor profiling, autophosphorylation. The class given is biochemical.

T3 sequence (Q61772 28-998): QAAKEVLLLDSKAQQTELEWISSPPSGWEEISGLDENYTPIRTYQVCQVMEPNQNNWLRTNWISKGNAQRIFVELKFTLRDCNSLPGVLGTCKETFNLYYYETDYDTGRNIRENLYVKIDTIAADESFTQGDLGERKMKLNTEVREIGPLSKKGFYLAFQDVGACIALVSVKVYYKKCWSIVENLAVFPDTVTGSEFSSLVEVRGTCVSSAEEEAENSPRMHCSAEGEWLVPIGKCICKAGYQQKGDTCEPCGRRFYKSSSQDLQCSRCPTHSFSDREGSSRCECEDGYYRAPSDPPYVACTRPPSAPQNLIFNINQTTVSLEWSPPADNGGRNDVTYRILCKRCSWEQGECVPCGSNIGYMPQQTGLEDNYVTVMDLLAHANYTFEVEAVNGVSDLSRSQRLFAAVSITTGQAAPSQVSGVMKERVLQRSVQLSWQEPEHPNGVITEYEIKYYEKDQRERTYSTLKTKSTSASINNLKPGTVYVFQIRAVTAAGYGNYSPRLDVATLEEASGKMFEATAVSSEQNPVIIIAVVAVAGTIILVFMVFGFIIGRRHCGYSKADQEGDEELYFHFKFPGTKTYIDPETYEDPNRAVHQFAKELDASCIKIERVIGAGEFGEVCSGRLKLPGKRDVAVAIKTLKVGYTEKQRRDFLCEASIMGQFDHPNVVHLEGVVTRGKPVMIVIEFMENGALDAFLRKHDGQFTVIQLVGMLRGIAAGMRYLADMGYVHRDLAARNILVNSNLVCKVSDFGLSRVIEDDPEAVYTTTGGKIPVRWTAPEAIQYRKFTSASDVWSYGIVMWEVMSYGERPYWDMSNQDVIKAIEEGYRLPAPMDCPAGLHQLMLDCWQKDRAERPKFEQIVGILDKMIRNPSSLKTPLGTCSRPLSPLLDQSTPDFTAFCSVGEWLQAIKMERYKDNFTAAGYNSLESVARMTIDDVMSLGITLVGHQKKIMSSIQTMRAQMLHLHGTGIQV

For the molecule “3491843: IMAGE clone protein: βTRCP1 [compound 3491843]”, in test [1], the “ECL signal, spot 3 EGFR-pY1068” value turned out to be 24. Also, the “ECL signal, spot 2 EGFR-pY1148” value in test [2] is reported as 36. In the same order, the values of “3872466: IMAGE clone protein: mCBP [compound 3872466]” are 126 and 278. For the molecule `Cc1cc2ncc(-c3ccc(O)c(O)c3)nc2cc1C` [AG-1433], the “Inhibition specificity towards Autophosphorylation at 10X IC50, Epha7” value in test [3] was “H (high inhibition (“H”=less than 25% of the activity remaining))”.

For the molecule `COc1c(C=O)c(O)cc2c1C(=O)c1ccccc1C2=O` [Damnacanthal], the “Inhibition specificity towards Autophosphorylation at 10X IC50, Epha7” value in test [3] was “H (high inhibition (“H”=less than 25% of the activity remaining))”.

(Values after patent US7063946B2, “Methods, reagents, kits and apparatus for protein function analysis” (Meso Scale Technologies, LLC., priority 2001, dated 2006).)
